Molecular target: Myc-tagged Bfl-1 (human, UniProt Q16548 1-175)
Assay: fluorescence polarisation; competition: 0–10 μM unlabeled peptide titrated into 50 nM c-myc-tagged receptor plus 25 nM fluoresceinated BIM; 25 mM Tris pH 7.8, 50 mM NaCl, 1 mM EDTA, 5% DMSO, 0.001% v/v Triton-X; 23°C, 3 hr; fit to a complete competitive binding model
Details: both partners purified

Myc-tagged Bfl-1, sequence (Q16548 whole entry): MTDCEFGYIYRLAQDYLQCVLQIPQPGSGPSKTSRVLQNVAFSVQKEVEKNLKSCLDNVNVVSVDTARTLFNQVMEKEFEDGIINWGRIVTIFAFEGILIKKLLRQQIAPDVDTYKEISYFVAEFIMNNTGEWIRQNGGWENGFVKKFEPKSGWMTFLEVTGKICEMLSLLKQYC

Ki: 720 nM
B1: BIM-FS2 (peptide)
chain: RPVIWIAQGLRRAGDEVNAYVAR
modifications: probably N-terminal acetyl and C-terminal amide; 23-mer 1f-4g assumed by analogy with PUMA/FS2; printed E2bV read as E2aV (2b is Ile in BIM, 2a is Glu and FS2 has Val at 2a); A2eA is no change / Myc …

From article PMC5464773, “Epistatic mutations in PUMA BH3 drive an alternate binding mode to potently and selectively inhibit anti-apoptotic Bfl-1” (eLife, 2017)
